From patent publication US9096835B2, “DNA polymerase” (Medical Research Council, priority 2003, dated 2015)
“Also recorded” adds a separate entry of the source.

Columns and labels:
[1] = test system: primers with 3′ transversion mismatches; assay: Mismatch extension PCR assay; assay type: biochemical; settings: G•A, C•C, G•G mismatched primers
Experimental: (§1) A PCR assay was used to screen and rank clones. Briefly, clones were normalized for activity in PCR with matched primers 3, 4 and activity with mismatched primers 1 and 2 (1 μM each) determined at minimal cycle number (15-25 cycles). Extension capability for different mismatches was determined by the same assay using mismatch primers 2 (C•C mismatch), 5 (A•A mismatch), 6 (G•G mismatch), 7 (G•A mismatch) with matched primer 3 or primer 1 (A•G mismatch) with matched primer 4. Incorporation of unnatural substrates in 50 cycle PCR was carried out using standard conditions and 50 μM […] dNTPs (Promega) or 50 μM FITC-12-dATP (Perkin-Elmer), Rhodamine-5-dUTP (Perkin-Elmer) or Biotin-16-dUTP (Roche) with equivalent amounts of the other 3 dNTPs (all 50 μM). Long PCR was carried out using a two-step cycling protocol as described (22) 94° C. for 2 minutes, followed by 20 cycles of (94° C. 15 sec, 68° C. 30 min) using 5 ng of phage λ DNA (New England Biolabs) template and either primers 9, 10, 11 with primer 12 or primer 13 with primers 10, 14.

[2] = biological target: matched and mismatched primer-template duplex; assay: Template affinity equilibrium binding assay; settings: not shown
Experimental: An equilibrium binding assay (12) was used to determine relative affinity of polymerases for the mismatched primer-templates used in the kinetics assays. Polymerases were preincubated at 60° C. in 1× Taq buffer with 50 nM ^32P-labeled matched primer-template and 50 nM unlabeled mismatched competitor primer-templates. Reactions were initiated by simultaneous addition of dCTP (200 μM) and trap DNA (XbaI/SalI-restricted sheared salmon sperm DNA, 4.5 mg/ml).

[3] = test system: primer-template DNA substrates; assay: Processivity primer extension assay with and without trap DNA; assay type: biochemical; settings: for bound polymerase that extended primers to the end of the template: in the presence of trap DNA (single DNA binding event); for termination probability: positions 6 and 7
Experimental: Processivity was measured using a primer extension assay the presence and absence of trap DNA. Termination probabilities were calculated according to the method of Kokoska et al.
Oligonucleotide primer 32 (5′-GCGGTGTAGAGACGAGTGCGGAG-3′) (SEQ ID NO: 117) was ^32P-labelled and annealed to the template 33 (5′-CTCTCACAAGCAGCCAGGCAAGCTCCGCACTCGTCTCTACACCGCTCCGC-3′ (SEQ ID NO: 118)) (at a primer/template ratio of molar 1/1.5). wtTaq (0.0025 nM; 0.025 nM; 0.25 nM), M1(0.05 nM; 0.5 nM; 5 nM), and M4 (0.05 nM; 0.5 nM; 5 nM) were preincubated with the primer-template DNA substrates (10 nM) in 10 mM Tris-HCl at pH 9.0, 5 mM MgCl2, 50 mM KCl, 0.1% Triton X 100 at 25° C. for 15 min. Reactions were initiated by addition of 100 μM dNTPs with or without trap DNA (1000-fold excess of unlabeled primer-templates). Reactions were performed at 60° C. for 2 min. […] Thus, in the presence of trap DNA, all DNA synthesis resulted from a single DNA binding event. Gel band intensities were calculated using a Phosphoimager and ImageQuant (both Molecular Dynamics) software. Percentage of polymerase molecules, which extended primers to the end of the template was calculated using the formula: In×100%/(I1+I2+ . . . +In), where In is the intensity of the band at position 22 or 23; I1, I2 . . . is the intensity of the band at position 1, 2 . . . . Termination probabilities (τ) were calculated according to the method of Kokoska et al^1, whereby t at a particular template position was calculated as the intensity of the band at this position divided by the sum of the intensity of this band and the band intensities of all longer products.

[4] = PCR with all four dNTPs replaced by αS dNTPs; assay type: biochemical; settings: 50 cycle PCR, 50 μM αS dNTPs
Experimental: as §1

[5] = test system: template containing a cis-syn cyclobutane thymine-thymine dimer (CPD); assay: Translesion replication assay (primer extension), CPD; assay type: biochemical; settings: gel-extension assay, 60° C.
Experimental: Template primers 22 (undamaged) or 23 (containing a synthetic abasic site) were synthesized by Lofstrand Laboratories (Gaithersburg, Md.). Template primer 24 (containing a single cis-syn thymine dimer), was synthesized as described (34). Primer 25 was ^32P-labeled and annealed to one of the three templates 22, 23, 24 (at a primer template ratio of molar 1:1.5) and extended in 40 mM Tris.HCl at pH 8.0, 5 mM MgCl2, 100 μM of each dNTP, 10 mM DTT, 250 μg/ml BSA, 2.5% glycerol, 10 nM primer-template DNA and 0.1 Unit of polymerase at 60° C. for various times.
Primer extension assays were essentially as described in (Ghadessy et al., 2004). Briefly, undamaged oligonucleotides and a 51mer containing a synthetic abasic site were synthesized by Lofstrand Laboratories (Gaithersburg, Md.) using standard techniques and were gel purified prior to use. A 20mer primer (LES—20 P) with the sequence 5′-[…]-3′ (SEQ ID NO: 99) was 5′-labeled with [^32P]ATP (5000 Ci/mmole; 1 Ci=37 GBq) (Pharmacia) using T4 polynucleotide kinase (Invitrogen, Carlsbad Calif.). Radiolabeled primer-template DNAs were prepared by annealing the 5′[^32P] labeled 20mer primer to one of the two following 51mer templates (at a primer template ratio of molar 1:1.5). 1) undamaged DNA (UNDT51T); 5′-AGCTACCATGCCTGCACGAATTCGGCATCCGTCGCGACCACGGTCGCAGCG-3′ (SEQ ID NO: 100); 2) an oligo (LABA51T) containing a synthetic abasic site (indicated as an X in bold font); 5′-AGCTACCATGCCTGCACGACA XCG GCATCCGTCGCGACCACGGTCGCAGCG-3′ (SEQ ID NO: 101). Standard replication reactions of 10 contained 40 mM Tris.HCl at pH 8.0, 5 mM MgCl2, 100 μM of each ultrapure dNTP (Amersham Pharmacia Biotech, NJ), 10 mM DTT, 250 μg/ml BSA, 2.5% glycerol, 10 nM 5′[32P] primer-template DNA and 0.1 Unit of polymerase. After incubation at 60° C. for various times reactions were terminated by the addition of 10 μl of 95% formamide/10 mM EDTA and the samples heated to 100° C. for 5 min. Reaction mixtures (5 μl) were subjected to 20% polyacrylamide/7 M Urea gel electrophoresis and replication products visualized by PhosphorImager analysis.

dissociation constants for matched and mismatched primer-template duplex [2] | bound polymerase that extended primers to the end of the template [3] | Molecule | extension of 3′ transversion mismatches in PCR [1] | termination probability [3] | PCR amplification with all four αS dNTPs [4] | CPD bypass in primer extension [5] | CPD bypass in primer extension ([5]; listed as A10) | processivity compared with wtTaq ([3]; even at the lowest enzyme concentrations) | size of PCR products with all four αS dNTPs [4]
indistinguishable | 13% | wtTaq: Thermus aquaticus (Taq) wild type DNA polymerase [reference compound] | unable to extend | 5% | failed to generate any amplification products | only able to insert a base opposite the 3′T of the dimer after prolonged reaction conditions | – | – | –
– | – | 3A10: third round clone, abasic site bypass; SEQ ID NO: 86 (protein, Mutant Taq polymerase) MAMLPLFEPKGRVLLVDGHHLAYRTFFALKGLTTSRGEPVQVVYGFAKSLLKALKEDGYKAVFVVFDAKAPSFRHKAYEAYRAGRAPTPQDFPRQLALIKELVDLLGFTRLEVPGYEADDVLATLAKKAEKEGYEVRILTADRGLYQLVSDRVAVLHPEGHLITPEWLWEKYGLRPEQWVDFRALVGDPSDNLPGVKGIGEKTALKLLKEWGSLENLLKNLDRVKPENVREKIKAHLEDLRLSLELSRVRTDLPLEVDLAQGREPDREGLRAFLERLEFGSLLHEFGLLESPKALEEAPWPPPEGAFVGFVLSRKEPMWADLLALAAARGGRVHQAPEPYKALRDLKEARGLLAKDLSVLALREGLGLPPGDDPMLLAYLLDPSNTTPEGVARRYGGEWTEEAGERAALSERLFANLWGRLEGEERLLWLYREVERPLSAVLAHMETTGVRLDVAYLRALSLEVAEEIARLEAEVFRLAGRPFNLNSRDQLERVLFDELGLPAIGKTEKTGKRSTSAAVLEALREAHPIVEKILQYRELTKLKSTYIDPLPDLIHPRTGRLHTRFNQTATATGRLSSSDPNLQNIPVRTPLGQRIRRAFIAEEGWLLVVLDYSQMELRVLAHLSGDENLIRVFQEGKDIHTQTASWMFGVPPEAVDPLMRRAAKTVNFGVLYGMSAHRLSQELSIPYEEAVAFIERYFQSFPKVRAWIEKTLEEGRRRGYVETLFGRRRYVPDLNARMKSVRGAAERMAFNMPVQGTAADLMKLAMVKLFPRLREMGARMLLQVHDELLLEAPQARAEEVAALAKEAMEKAYPLAVPLEVEVGIGEDWLSAKE | – | – | – | – | clearly better at both abasic site and CPD extension and bypass than both wild type and M1; also recorded: superior elongation and bypass when compared to wild type | – | –
indistinguishable | 28% | M1: Taq mutant G84A, D144G, K314R, E520G, F598L, A608V, E742G; SEQ ID NO: 1 (protein, Mutant Thermus aquaticus DNA polymerase) MRGMLPLFEPKGRVLLVDGHHLAYRTFHALKGLTTSRGEPVQAVYGFAKSLLKALKEDGDAVIVVFDAKAPSFRHEAYGGYKAARAPTPEDFPRQLALIKELVDLLGLARLEVPGYEADDVLASLAKKAEKEGYEVRILTADKGLYQLLSDRIHVLHPEGYLITPAWLWEKYGLRPDQWADYRALTGDESDNLPGVKGIGEKTARKLLEEWGSLEALLKNLDRLKPAIREKILAHMDDLKLSWDLAKVRTDLPLEVDFAKRREPDRERLRAFLERLEFGSLLHEFGLLESPKALEEAPWPPPEGAFVGFVLSRREPMWADLLALAAAAGGRVHRAPEPYKALRDLKEARGLLAKDLSVLALREGLGLPPGDDPMLLAYLLDPSNTTPEGVARRYGGEWTEEAGERAALSERLFANLWGRLEGEERLLWLYREVERPLSAVLAHMEATGVRLDVAYLRALSLEVAEEIARLEAEVFRLAGHPFNLNSRDQLERVLFDELGLPAIGKTEKTGKRSTSAAVLGALREAHPIVEKILQYRELTKLKSTYIDPLPDLIHPRTGRLHTRFNQTATATGRLSSSDPNLQNIPVRTPLGQRIRRAFIAEEGWLLVVLDYSQIELRVLAHLSGDENLIRVFQEGRDIHTETASWMFGVPREAVDPLMRRAAKTINFGVLYGMSAHRLSQELAIPYEEAQAFIERYFQSFPKVRAWIEKTLEEGRRRGYVETLFGRRRYVPDLEARVKSVRGAAERMAFNMPVQGTAADLMKLAMVKLFPRLEEMGARMLLQVHDELVLEAPKERAEAVARLAKEVMEGVYPLAVPLEVEVGIGEDWLSAKE | greatly increased ability to extend; also recorded: generate amplification products | 1% | – | able to readily extend all of the primer to the 3′T of the dimer | – | processivity equal (or higher) than wtTaq | up to 2 kbp
